Measurements from patent publication US20250152746A1, “BASE EDITING OF ANGPTL3 AND METHODS OF USING SAME FOR TREATMENT OF DISEASE” (Verve Therapeutics, Inc., priority 2020, published 2025).

B1: GA113: ANGPTL3 gRNA; protospacer ATTCTGGAGGAAATAACTAG (SEQ ID NO: 111) (nucleic acid)
guide: AUTCTGGAGGAAATAACTAGGTTTTAGAGCTAGAAATAGCAAGTTAAAATAAGGCTAGTCCGTTATCAACTTGAAAAAGTGGCACCGAGTCGGTGCTTTT
modifications: 2'-O-methyl at 1, 2, other sugars, backbone and T or U not given here; further chemistry not fully specified
B2: GA108: ANGPTL3 gRNA; protospacer TCCCAACTGAAGGAGGCCAT (SEQ ID NO: 106) (nucleic acid)
guide: UCCCAACTGAAGGAGGCCATGTTTTAGAGCTAGAAATAGCAAGTTAAAATAAGGCTAGTCCGTTATCAACTTGAAAAAGTGGCACCGAGTCGGTGCTTTT
modifications: 2'-O-methyl at 1, 2, other sugars, backbone and T or U not given here; further chemistry not fully specified
B3: GA129: ANGPTL3 gRNA; protospacer AGTTCTTGGTGCTCTTGGCT (SEQ ID NO: 127) (nucleic acid)
guide: AGTTCTTGGTGCTCTTGGCTGTTTTAGAGCTAGAAATAGCAAGTTAAAATAAGGCTAGTCCGTTATCAACTTGAAAAAGTGGCACCGAGTCGGTGCTTTT
modifications: 2'-O-methyl at 1, 2, other sugars and backbone not given here; further chemistry not fully specified
B4: GA117: ANGPTL3 gRNA; protospacer ACTACAAGTCAAAAATGAAG (SEQ ID NO: 115) (nucleic acid)
guide: ACTACAAGTCAAAAATGAAGGTTTTAGAGCTAGAAATAGCAAGTTAAAATAAGGCTAGTCCGTTATCAACTTGAAAAAGTGGCACCGAGTCGGTGCTTTT
modifications: 2'-O-methyl at 1, 2, other sugars and backbone not given here; further chemistry not fully specified
B5: GA109: ANGPTL3 gRNA; protospacer GGCCTCCTTCAGTTGGGACA (SEQ ID NO: 107) (nucleic acid)
guide: GGCCTCCTTCAGTTGGGACAGTTTTAGAGCTAGAAATAGCAAGTTAAAATAAGGCTAGTCCGTTATCAACTTGAAAAAGTGGCACCGAGTCGGTGCTTTT
modifications: 2'-O-methyl at 1, 2, other sugars and backbone not given here; further chemistry not fully specified
B6: GA127: ANGPTL3 gRNA; protospacer AACATGATGGTAAGACACTT (SEQ ID NO: 125) (nucleic acid)
guide: AACATGATGGTAAGACACTTGTTTTAGAGCTAGAAATAGCAAGTTAAAATAAGGCTAGTCCGTTATCAACTTGAAAAAGTGGCACCGAGTCGGTGCTTTT
modifications: 2'-O-methyl at 1, 2, other sugars and backbone not given here; further chemistry not fully specified
B7: GA111: ANGPTL3 gRNA; protospacer GCCAATGGCCTCCTTCAGTT (SEQ ID NO: 109) (nucleic acid)
guide: GCCAATGGCCTCCTTCAGTTGTTTTAGAGCTAGAAATAGCAAGTTAAAATAAGGCTAGTCCGTTATCAACTTGAAAAAGTGGCACCGAGTCGGTGCTTTT
modifications: 2'-O-methyl at 1, 2, other sugars and backbone not given here; further chemistry not fully specified
B8: GA125: ANGPTL3 gRNA; protospacer TGATGGTAAGACACTTTGGT (SEQ ID NO: 123) (nucleic acid)
guide: UGATGGTAAGACACTTTGGTGTTTTAGAGCTAGAAATAGCAAGTTAAAATAAGGCTAGTCCGTTATCAACTTGAAAAAGTGGCACCGAGTCGGTGCTTTT
modifications: 2'-O-methyl at 1, 2, other sugars, backbone and T or U not given here; further chemistry not fully specified
B9: GA126: ANGPTL3 gRNA; protospacer GGAGTAGTTCTTGGTGCTCT (SEQ ID NO: 124) (nucleic acid)
guide: GGAGTAGTTCTTGGTGCTCTGTTTTAGAGCTAGAAATAGCAAGTTAAAATAAGGCTAGTCCGTTATCAACTTGAAAAAGTGGCACCGAGTCGGTGCTTTT
modifications: 2'-O-methyl at 1, 2, other sugars and backbone not given here; further chemistry not fully specified
B10: GA110: ANGPTL3 gRNA; protospacer GACCATGTCCCAACTGAAGG (SEQ ID NO: 108) (nucleic acid)
guide: GACCATGTCCCAACTGAAGGGTTTTAGAGCTAGAAATAGCAAGTTAAAATAAGGCTAGTCCGTTATCAACTTGAAAAAGTGGCACCGAGTCGGTGCTTTT
modifications: 2'-O-methyl at 1, 2, other sugars and backbone not given here; further chemistry not fully specified
B11: GA116: ANGPTL3 gRNA; protospacer GTAGAATTTTTTCTTCTAGG (SEQ ID NO: 114) (nucleic acid)
guide: GUAGAATTTTTTCTTCTAGGGTTTTAGAGCTAGAAATAGCAAGTTAAAATAAGGCTAGTCCGTTATCAACTTGAAAAAGTGGCACCGAGTCGGTGCTTTT
modifications: 2'-O-methyl at 1, 2, other sugars, backbone and T or U not given here; further chemistry not fully specified
B12: GA128: ANGPTL3 gRNA; protospacer TGAAGAAAGGGAGTAGTTCT (SEQ ID NO: 126) (nucleic acid)
guide: UGAAGAAAGGGAGTAGTTCTGTTTTAGAGCTAGAAATAGCAAGTTAAAATAAGGCTAGTCCGTTATCAACTTGAAAAAGTGGCACCGAGTCGGTGCTTTT
modifications: 2'-O-methyl at 1, 2, other sugars, backbone and T or U not given here; further chemistry not fully specified
B13: GA122: ANGPTL3 gRNA; protospacer CTTTTATTTGACTATGCTGT (SEQ ID NO: 120) (nucleic acid)
guide: CUTTTATTTGACTATGCTGTGTTTTAGAGCTAGAAATAGCAAGTTAAAATAAGGCTAGTCCGTTATCAACTTGAAAAAGTGGCACCGAGTCGGTGCTTTT
modifications: 2'-O-methyl at 1, 2, other sugars, backbone and T or U not given here; further chemistry not fully specified

How the values were obtained:
ANGPTL3 gene [1] = assay: ANGPTL3 gRNA/SpCas9 editing in primary cynomolgus hepatocytes (Table 3); assay type: cell-based, cynomolgus monkey
Protocol: (§1) In set of experiments, PCSK9 gRNAs were co-transfected with an equivalent amount (1:1 ratio by weight) of in vitro transcribed commercially available SpCas9 mRNA MS002 purchased from TriLink Biotechnologies into primary human hepatocytes at 2500, 500, or 100 ng/RNA/mL and processed as described in detailed methods. Extracted genomic DNA was analyzed for gene editing at the target site with next-generation sequencing of PCR amplicons generated around the target sites. Samples were prepared using the Nextera XT DNA library preparation kit (Illumina) according to the manufacturer's protocol. Briefly, two rounds of PCR were performed first to amplify the region of interest and second to add DNA sequences required for next generation sequencing and sample identification to the initial product. The final amplicon was sequenced on the Illumina MiSeq instrument according to the manufacturer's protocol. A wide range of editing activities (Table 2) were observed. In a second set of experiments, ANGPTL3 gRNAs were co-transfected with an equivalent amount of in vitro transcribed SpCas9 mRNA (1:1 ratio by weight) into primary human hepatocytes and processed and analyzed similarly (Table 3).
(§2) Plating, culturing, and transfection of primary hepatocytes. Primary human liver hepatocytes (PHH) and primary cynomolgus liver hepatocytes (PCH) from BioIVT were cultured per the manufacturer's protocol. Briefly, primary human hepatocytes and primary cyno hepatocytes were obtained as frozen aliquots from BioIVT. Four lots of primary human hepatocytes, each derived from a de-identified individual donor, were used for the experiments: STL (main donor) was used for all experiments, including screening experiments and off-target experiments; HLY, JLP, and TLY were used for off-target experiments. The HFG lot of primary cyno hepatocytes were used for experiments. Following the manufacturer's instructions, cells were thawed and rinsed prior to plating in 24-well plates that had been coated with bovine collagen overnight, with a density of approximate 350,000 cells/well in INVITROGRO hepatocyte medium supplemented with TORPEDO antibiotic mix (BioIVT). The cells were thawed and resuspended in hepatocyte thawing medium followed by centrifugation at 100 g for 10 min at 4° C. The supernatant was discarded, and the pelleted cells resuspended in hepatocyte plating medium. Each vial contains approximately 5 million cells that were used for plating one 24-well plate. Plated cells were allowed to settle and adhere for 4-6 h in a tissue culture incubator at 37° C. under 5% CO2 atmosphere. After incubation, cells were checked for monolayer formation. The incubating media were then replaced with fresh hepatocyte maintenance media (complete INVITROGRO medium obtained from BioIVT, the cell line provider). The cells thus became ready for transfection. Each of the gRNAs were co-transfected with an equivalent amount of in vitro transcribed ABE8.8 mRNA (1:1 ratio by molecular weight) into primary human hepatocytes via MessengerMax reagent (Lipofectamine), using various dilutions to assess for editing activity at different concentrations of test article. MessengerMAX from Thermo Fisher is used for transfection. Solution A: desired amount of guide RNA is mixed with 1:1 wt ratio of mRNA in OptiMEM. Solution B: MessengerMAX in OptiMEM. After mixing solutions A and B, the mixture was incubated at room temperature for 20 min. 60 μL of the incubated solution was added dropwise to each cell wells. For protospacer sequences that were a perfect match to the corresponding cynomolgous monkey PCSK9 or ANGPTL3 gene sequence, each gRNA was also co-transfected with an equivalent amount of ABE8.8 mRNA (1:1 ratio by molecular weight) into primary cynomolgous hepatocytes, and followed the same transfection protocol. The cells were then allowed to remain at 37° C. for 3 days. […]

ANGPTL3 gene [2] = assay: ANGPTL3 gRNA/SpCas9 editing in primary human hepatocytes (Table 3); assay type: cell-based
Protocol: as §1, §2

Molecule | Cyno Primary Hepatocyte Editing % 100 ng/mL (ANGPTL3 gene [1]) [%] | Cyno Primary Hepatocyte Editing % 500 ng/ml (ANGPTL3 gene [1]) [%] | Human Primary Hepatocyte Editing % 100 ng/ml (ANGPTL3 gene [2]) [%] | Human Primary Hepatocyte Editing % 500 ng/mL (ANGPTL3 gene [2]) [%]
B1 | 12.07 | 26.67 | 6.00 | 19.97
B2 | 4.11 | 15.49 | 4.95 | 19.43
B3 | 5.36 | 20.06 |  | 
B4 | 10.01 | 26.11 | 7.08 | 16.55
B5 | 4.15 | 15.11 | 6.60 | 18.07
B6 | 19.89 | 33.67 | 5.77 | 18.74
B7 | 22.61 | 28.98 | 10.72 | 24.08
B8 | 12.91 | 19.72 | 5.04 | 16.27
B9 | 8.29 | 17.57 | 6.73 | 15.21
B10 | 8.59 | 15.99 | 5.37 | 13.63
B11 | 10.84 | 19.83 | 3.78 | 16.33
B12 | 0.19 | 32.55 | 10.29 | 25.39
B13 | 7.28 | 16.76 | 4.45 | 13.82
